Our source for the SPR Response (RU) and % Inhibition values is patent US20070134813A1.

The target of experiment [1] is T1, C-reactive protein (human) (UniProt P02741).
T1 sequence (looked up): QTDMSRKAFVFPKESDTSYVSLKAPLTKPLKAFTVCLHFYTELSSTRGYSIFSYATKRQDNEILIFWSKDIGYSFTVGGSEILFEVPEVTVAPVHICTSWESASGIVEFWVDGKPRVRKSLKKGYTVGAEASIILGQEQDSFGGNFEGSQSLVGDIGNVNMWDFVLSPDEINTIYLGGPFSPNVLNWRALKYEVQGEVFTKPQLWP
The experiment in a line: SPR, Fn 1 mg/mL in the presence of 50 uM 9-mer injected over antibody-captured CRP.

In experiment [2] the target is T1, C-reactive protein (human). The experiment in a line: SPR, Fn 1 mg/mL in the presence of 50 uM 10-mer injected over antibody-captured CRP.
Experiment [3] has as its target T1, C-reactive protein (human). The experiment in a line: SPR, Fn 1 mg/mL in the presence of 50 uM 19-mer injected over antibody-captured CRP.
The target in experiment [4] is T1, C-reactive protein (human). The experiment can be described thus: SPR (Biacore X), Fn 1 mg/mL without inhibitor injected over CRP captured on immobilized anti-CRP antibody, 25 C.
The target of experiment [5] is T1, C-reactive protein (human). The experiment can be described thus: SPR, inhibition of Fn (1 mg/mL) binding to antibody-captured CRP at 50 uM peptide.

Take “fibronectin (from UniProt P02751 32-2477)”: the SPR Response (RU) amounted to 119 RU in experiment [1], 76 RU in experiment [2], 76 RU in experiment [3] and 118 RU in experiment [4].

As for PRCGNPDVANYNFFPRKPK [19-mer (SEQ ID NO.: 11)], in experiment [5], the % Inhibition was found to be 35.6%.

In experiment [5], NYNFFPRKPK [10-mer (SEQ ID NO.: 12)] displayed a % Inhibition of 35.6%. With PRCGNPDVA [9-mer (SEQ ID NO.: 16)], in experiment [5], the % Inhibition was determined as 0%.
